Test results published in article PMC4784688 (Developmental cell, 2015).
One block for each binder: values may come before it.

How the values were obtained:
[1] = target: T1, soluble purified PTPδ ectodomain fused to the Fc region of human immunoglobulin (UniProt Q64487 21-1266); experiment: immunostaining of cells or tissue
T1 sequence (looked up): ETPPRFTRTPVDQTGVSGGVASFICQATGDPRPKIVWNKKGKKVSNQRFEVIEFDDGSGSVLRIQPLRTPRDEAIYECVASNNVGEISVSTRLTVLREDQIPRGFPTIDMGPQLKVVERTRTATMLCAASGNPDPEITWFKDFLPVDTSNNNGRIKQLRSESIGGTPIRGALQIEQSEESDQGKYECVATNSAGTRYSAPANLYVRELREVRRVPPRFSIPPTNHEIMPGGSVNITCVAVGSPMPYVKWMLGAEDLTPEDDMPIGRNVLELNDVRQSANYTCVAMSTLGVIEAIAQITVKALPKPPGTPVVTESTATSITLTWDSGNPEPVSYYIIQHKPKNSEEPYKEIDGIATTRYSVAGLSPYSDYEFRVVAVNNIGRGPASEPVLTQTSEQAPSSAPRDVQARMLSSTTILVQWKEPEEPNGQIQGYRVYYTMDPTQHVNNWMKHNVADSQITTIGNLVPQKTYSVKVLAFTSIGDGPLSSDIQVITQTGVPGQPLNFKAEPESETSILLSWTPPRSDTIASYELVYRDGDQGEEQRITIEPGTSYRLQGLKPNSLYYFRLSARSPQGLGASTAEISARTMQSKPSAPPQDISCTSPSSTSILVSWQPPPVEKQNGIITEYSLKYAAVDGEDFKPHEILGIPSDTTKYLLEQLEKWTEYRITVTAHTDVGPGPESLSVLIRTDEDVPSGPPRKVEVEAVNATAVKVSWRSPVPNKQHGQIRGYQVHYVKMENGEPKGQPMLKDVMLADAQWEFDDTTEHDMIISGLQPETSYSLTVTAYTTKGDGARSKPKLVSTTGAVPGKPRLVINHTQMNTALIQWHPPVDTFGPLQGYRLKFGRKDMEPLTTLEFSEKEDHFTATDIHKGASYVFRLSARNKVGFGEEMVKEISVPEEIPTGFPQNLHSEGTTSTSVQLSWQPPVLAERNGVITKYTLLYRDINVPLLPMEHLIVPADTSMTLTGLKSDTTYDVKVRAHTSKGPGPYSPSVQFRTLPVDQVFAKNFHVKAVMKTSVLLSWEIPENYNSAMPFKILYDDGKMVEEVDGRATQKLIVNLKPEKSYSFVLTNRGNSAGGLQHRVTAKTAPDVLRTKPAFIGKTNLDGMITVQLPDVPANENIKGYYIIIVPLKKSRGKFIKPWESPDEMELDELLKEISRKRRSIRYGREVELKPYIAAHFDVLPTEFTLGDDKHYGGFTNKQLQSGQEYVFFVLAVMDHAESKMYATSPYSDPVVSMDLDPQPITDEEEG

[2] = target: T2, Slitrk5 (UniProt O94991); experiment: PTPδ-Fc dissociation from cells
T2 chain: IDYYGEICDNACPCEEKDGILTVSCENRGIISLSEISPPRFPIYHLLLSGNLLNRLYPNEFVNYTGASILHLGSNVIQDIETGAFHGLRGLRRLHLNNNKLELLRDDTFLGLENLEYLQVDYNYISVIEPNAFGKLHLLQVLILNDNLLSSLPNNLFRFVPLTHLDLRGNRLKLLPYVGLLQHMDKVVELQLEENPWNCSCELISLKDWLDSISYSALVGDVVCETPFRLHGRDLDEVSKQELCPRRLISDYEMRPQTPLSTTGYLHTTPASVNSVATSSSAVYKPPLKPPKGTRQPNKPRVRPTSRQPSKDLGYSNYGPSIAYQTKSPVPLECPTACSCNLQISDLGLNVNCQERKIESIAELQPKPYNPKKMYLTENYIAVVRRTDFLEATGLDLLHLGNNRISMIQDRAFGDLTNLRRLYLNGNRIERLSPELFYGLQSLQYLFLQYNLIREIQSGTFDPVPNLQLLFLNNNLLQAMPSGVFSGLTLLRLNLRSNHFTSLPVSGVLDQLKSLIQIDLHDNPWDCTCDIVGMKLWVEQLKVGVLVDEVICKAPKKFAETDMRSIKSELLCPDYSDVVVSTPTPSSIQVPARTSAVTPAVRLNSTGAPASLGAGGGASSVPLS

- Kd [1]: ~100 nM
B1: HA-tagged Slitrk5 (WT, full-length) (natural protein, UniProt Q810B7 41-957, looked up)
chain: IDYYGEICDNACPCEEKDGILTVSCENRGIISLSEISPPRFPIYHLLLSGNLLSRLYPNEFVNYTGASILHLGSNVIQDIETGAFHGLRGLRRLHLNNNKLELLRDDTFLGLENLEYLQVDYNYISVIEPNAFGKLHMLQVLILNDNLLSGLPNNLFRFVPLTHLDLRGNRLKLLPYVGLLQHMDKVVELQLEENPWNCSCELISLKDWLDSISYSALVGDVVCETPFRLHGRDLDEVSKQELCPRKLISDYEMRPQTPLSTTGYLHTTPASVNSVATSSSAVYKPPLKPPKGTRQPNKPRVRPTSRQPSKDLGYSNYGPSIAYQTKSPVPLECPTACTCNLQISDLGLNVNCQERKIESIAELQPKPYNPKKMYLTENYITVVRRTDFLEATGLDLLHLGNNRISMIQDRAFGDLGNLRRLYLNGNRIERLSPELFYGLQSLQYLFLQYNLIREIQAGTFDPVPNLQLLFLNNNQLQAMPSGVFSGLTLLRLNLRGNSFTSLPVSGVLDQLTSLIQIDLHDNPWDCTCDVVGMKLWIEQLKVGVLVDEVICKAPKKFAETYMRSIKSELLCPDYSDVVVSTPTPSSIQVPSRTNAATPAVRLNSTGTPAGLGAGTGASSVPLSVLILSLLLVFIMSVFVAAGLFVLVMKRRKKNQSDHTSTNNSDVSSFNMQYSVYGGGGGGGGGHPHAHVHHRGPALPKVKTPAGHVYEYIPHPLGHMCKNPIYRSREGNSVEDYKDLHELKVTYSSNHHLQQQPPPPPQQPQQQPPPQMQMQPGEEERRESHHLRSPAYSVSTIEPREDLLSPVQDADRFYRGILEPDKHCSTTPAGSSLPEYPKFPCSPAAYTFSPNYDLRRPHQYLHPGAGESRLREPVLYSPPGAVFVEPNRNEYLELKAKLNVEPDYLEVLEKQTTFSQF

- Kd [2]: ~0.9 nM
B2: BDNF (protein)
chain: HSDPARRGELSVCDSISEWVTAADKKTAVDMSGGTVTVLEKVPVSKGQLKQYFYETKCNPMGYTKEGCRGIDKRHWNSQCRTTQSYVRALTMDSKKRIGWRFIRIDTSCVCTLTIKRGR
